# Measured values taken from patent US20210130436A1.
# Molecular target: CD28 (human) (UniProt P10747)
# Experiment: cell-based or functional assay
Substance,"Fold Increase over WT CD80-IgV-Fc, same assay, 50 nM [fold]","IL-2-luciferase RLU, Jurkat + K562/OKT3/PD-L1 aAPC, 50 nM [RLU]","IL-2 release, primary T cells; K562/OKT3 (No PD-L1); 1 nM","IL-2 release, primary T cells; K562/OKT3 (No PD-L1); 10 nM","IL-2 release, primary T cells; K562/OKT3 (No PD-L1); 100 nM","IL-2-luciferase RLU, Jurkat + CHO/OKT3/PD-L1 aAPC, 0.6 nM [RLU]","IL-2-luciferase RLU, Jurkat + CHO/OKT3/PD-L1 aAPC, 1.9 nM [RLU]","IL-2-luciferase RLU, Jurkat + CHO/OKT3/PD-L1 aAPC, 5.6 nM [RLU]","IL-2-luciferase RLU, Jurkat + CHO/OKT3/PD-L1 aAPC, 16.7 nM [RLU]","IL-2-luciferase RLU, Jurkat + CHO/OKT3/PD-L1 aAPC, 50 nM [RLU]"
variant CD80 IgV-Fc (inert) E35D/D46E/M47V/L97Q (Fc fusion),1.9,1090,,,,,,,,
variant CD80 IgV-Fc (inert) A26E/Q33R/E35D/M47L/L85Q (Fc fusion),0.9,500,,,,,,,,
variant CD80 IgV-Fc (inert) Q33R/E35D/D46E/M47I (Fc fusion),0.9,522,,,,,,,,
variant CD80 IgV-Fc (inert) Q33L/E35D/M43I/L85Q/R94W (Fc fusion),,553,,,,,,,,
variant CD80 IgV-Fc (inert) E7D/E35D/M47I/L97Q (Fc fusion),2.2,1240,,,,,,,,
variant CD80 IgV-Fc (inert) Q33L/E35D/M47I/L85Q (Fc fusion),,432,,,,,,,,
variant CD80 IgV-Fc (inert) S15P/Q33L/E35D/M47L/L85Q (Fc fusion),,468,,,,,,,,
variant CD80 IgV-Fc (inert) Q33R/E35D/K37E/M47V/L85Q (Fc fusion),,464,,,,,,,,
variant CD80 IgV-Fc (inert) H18Y/V20A/Q33L/E35D/M47V/Y53F (Fc fusion),,566,,,,,,,,
variant CD80 IgV-Fc (inert) V22A/R29H/E35D/D46E/M47I (Fc fusion),5.9,3310,,,,,,,,
variant CD80 IgV-Fc (inert) Q27H/E35D/M47L/L85Q/R94Q/E95K (Fc fusion),0.9,513,,,,,,,,
variant CD80 IgV-Fc (inert) E35D/M47I/K54R/L85E (Fc fusion),1.1,602,,,,,,,,
variant CD80 IgV-Fc (inert) A26E/E35D/M43T/M47L/L85Q/R94Q (Fc fusion),0.9,526,,,,,,,,
WT IgG1 Fc Control,,,7080,6920,6260,,,,,
variant CD80 IgV-Fc (inert) Q33L/E35D/M47L/V68M/L85Q/E88D (Fc fusion),,572,,,,,,,,
variant CD80 IgV-Fc (inert) H18L/V22A/E35D/M47L/N48T/L85Q (Fc fusion),4.7,2650,,,,,,,,
variant CD80 IgV-Fc (inert) Q33L/E35D/M47L/A71G/F92S (Fc fusion),0.7,394,,,,,,,,
variant CD80 IgV-Fc (inert) Q33L/E35D/D46E/M47I (Fc fusion),,554,,,,,,,,
variant CD80 IgV-Fc (inert) E35D/M47V/A71G/L85M/L97Q (Fc fusion),,576,,,,,,,,
variant CD80 IgV-Fc (inert) V22A/E35D/V68E/A71D (Fc fusion),,538,,,,,,,,
variant CD80 IgV-Fc (inert) Q33L/E35D/T41S/M43I (Fc fusion),0.9,533,,,,,,,,
variant CD80 IgV-Fc (inert) Q33L/E35D/N48K/L85Q/L97Q (Fc fusion),0.6,358,,,,,,,,
variant CD80 IgV-Fc (inert) H18Y/A26E/Q33L/E35D/M47L/L85Q (Fc fusion),0.7,408,,,,,,,,
variant CD80 IgV-Fc (inert) E35D/M47V/T62A/A71G/V83A/Y87H/L97M (Fc fusion),,438,,,,,,,,
WT CD80-ECD-Fc (effector) (from UniProt P33681 35-242) (Fc fusion),,3040,,,,,,,,
variant CD80 IgV-Fc (inert) A71D/L72V/E95K (Fc fusion),,,,,,524,530,617,641,755

Substance,"Fold Increase over WT CD80-IgV-Fc, same assay, 50 nM [fold]","IL-2-luciferase RLU, Jurkat + K562/OKT3/PD-L1 aAPC, 50 nM [RLU]","IL-2 release, primary T cells; K562/OKT3 (No PD-L1); 1 nM","IL-2 release, primary T cells; K562/OKT3 (No PD-L1); 10 nM","IL-2 release, primary T cells; K562/OKT3 (No PD-L1); 100 nM","IL-2-luciferase RLU, Jurkat + CHO/OKT3/PD-L1 aAPC, 0.6 nM [RLU]","IL-2-luciferase RLU, Jurkat + CHO/OKT3/PD-L1 aAPC, 1.9 nM [RLU]","IL-2-luciferase RLU, Jurkat + CHO/OKT3/PD-L1 aAPC, 5.6 nM [RLU]","IL-2-luciferase RLU, Jurkat + CHO/OKT3/PD-L1 aAPC, 16.7 nM [RLU]","IL-2-luciferase RLU, Jurkat + CHO/OKT3/PD-L1 aAPC, 50 nM [RLU]"
variant CD80 IgV-Fc (inert) Q33L/E35D/M47V/L85Q (Fc fusion),,556,,,,,,,,
variant CD80 IgV-Fc (inert) H18Y/A26T/E35D/A71D/L85Q (Fc fusion),,,,,,628,621,795,974,1160
variant CD80 IgV-Fc (inert) H18Y/E35D/V68M/L97Q (Fc fusion),,4340,,,,,,,,
variant CD80 IgV-Fc (inert) V22A/E23D/Q33L/E35D/M47V (Fc fusion),0.7,390,,,,,,,,
variant CD80 IgV-Fc (inert) E24D/Q33L/E35D/M47V/K54R/L85Q (Fc fusion),5.7,3240,,,,,,,,
variant CD80 IgV-Fc (inert) A26E/Q33L/E35D/M47L/L85Q (Fc fusion),0.7,416,,,,,,,,
variant CD80 IgV-Fc (inert) Q33L/E35D/M47I (Fc fusion),0.7,423,,,,,,,,
variant CD80 IgV-Fc (inert) A26E/Q33L/E35D/M47L (Fc fusion),,476,,,,,,,,
variant CD80 IgV-Fc (inert) Q27H/Q33L/E35D/M47V/N55D/L85Q/K89N (Fc fusion),,551,,,,,,,,
variant CD80 IgV-Fc (inert) E35D/M47I/E77A/L85Q/R94W (Fc fusion),,473,,,,,,,,
variant CD80 IgV-Fc (inert) Q33L/E35D/T41S/M47V (Fc fusion),,481,,,,,,,,
variant CD80 IgV-Fc (inert) Q33L/E35D/M47I/T62N/L85Q (Fc fusion),,463,,,,,,,,
variant CD80 IgV-Fc (inert) Q33K/E35D/D46V/L85Q (Fc fusion),0.9,504,,,,,,,,
variant CD80 IgV-Fc (inert) Y31S/E35D/M47L/T79L/E88G (Fc fusion),0.9,496,,,,,,,,
variant CD80 IgV-Fc (inert) Q33K/E35D/M47V/K89E/K93R (Fc fusion),0.7,415,,,,,,,,
variant CD80 IgV-Fc (inert) E35D/M47L/A71G/L97Q (Fc fusion),3.8,2160,,,,,,,,
variant CD80 IgV-Fc (inert) Q33L/E35D/M47V/T79A (Fc fusion),0.9,527,,,,,,,,
variant CD80 IgV-Fc (inert) E35D/M47L/L85Q (Fc fusion),5,,,,,,,,,
variant CD80 IgV-Fc (inert) H18Y/Y31H/E35D/M47V/A71G/L85Q (Fc fusion),,455,,,,,,,,
variant CD80 IgV-Fc (inert) E35D/D46V/M47I/A71G/F92V (Fc fusion),4,,,,,,,,,
variant CD80 IgV-Fc (inert) Q33L/E35D/M43V/M47I/A71G (Fc fusion),,473,,,,,,,,
variant CD80 IgV-Fc (inert) Q33L/E35D/M47V (Fc fusion),0.7,393,,,,,,,,
variant CD80 IgV-Fc (inert) H18Y/Q33L/E35D/M47I (Fc fusion),0.9,486,,,,,,,,
variant CD80 IgV-Fc (inert) A26E/Q33R/E35D/M47L/L85Q/K86E (Fc fusion),,569,,,,,,,,
variant CD80 IgV-Fc (inert) H18Y/E35D/M47L (Fc fusion),5.3,2980,,,,,,,,

# Same assay, conditions: not given
Substance,"IL-2-luciferase RLU, Jurkat + CHO/OKT3 aAPC (no PD-L1), 5.6 nM [RLU]","IL-2-luciferase RLU, Jurkat + CHO/OKT3 aAPC (no PD-L1), 16.7 nM [RLU]","IL-2-luciferase RLU, Jurkat + CHO/OKT3 aAPC (no PD-L1), 50 nM [RLU]"
variant CD80 IgV-Fc (inert) A71D/L72V/E95K (Fc fusion),466,547,644
variant CD80 IgV-Fc (inert) H18Y/A26T/E35D/A71D/L85Q (Fc fusion),,660,926
